Data: US20250228943A1

Biological target: TGFβR2-IL18R redirector receptor
Assay: cell-based or functional assay

Sequence of TGFβR2-IL18R redirector receptor (chain, as listed by the source): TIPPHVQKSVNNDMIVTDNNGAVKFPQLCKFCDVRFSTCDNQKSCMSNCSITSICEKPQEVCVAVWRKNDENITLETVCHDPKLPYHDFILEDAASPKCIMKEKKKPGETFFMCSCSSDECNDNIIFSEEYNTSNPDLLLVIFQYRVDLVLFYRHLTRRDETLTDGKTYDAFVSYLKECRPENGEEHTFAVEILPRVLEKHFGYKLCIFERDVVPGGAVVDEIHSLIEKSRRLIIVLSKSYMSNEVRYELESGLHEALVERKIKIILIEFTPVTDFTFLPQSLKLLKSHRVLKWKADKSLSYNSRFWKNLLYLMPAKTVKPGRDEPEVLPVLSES

## TGFβ (ligand)
  percent CD69^+CD25^+ effector cells after five rounds of co-culture with TGFβ (flow cytometry): 61.6%
